Reference: US20220009989A1

What was measured:
Biotinylated PCSK9 = Biotinylated PCSK9 (UniProt Q8NBP7); assay: PCSK9-LDL-R competitive ELISA (biotinylated PCSK9, coated rhLDL-R), Ki from IC50
[1] = target: PCSK9 (10 ug/mL; in-house production) (UniProt Q8NBP7); assay: cell-based or functional assay
[2] = target: solubilised human IR-A (human) (UniProt P06213); assay: SPA competition vs [125I-A14Y]-human insulin, solubilised hIR-A, 0% HSA, relative to human insulin
[3] = target: solubilised human IR-A (human) (UniProt P06213); assay: SPA competition vs [125I-A14Y]-human insulin, solubilised hIR-A, 1.5% HSA, relative to human insulin

solubilised human IR-A (human), sequence (P06213 other isoform, or with tags, fused parts or gaps limits assumed): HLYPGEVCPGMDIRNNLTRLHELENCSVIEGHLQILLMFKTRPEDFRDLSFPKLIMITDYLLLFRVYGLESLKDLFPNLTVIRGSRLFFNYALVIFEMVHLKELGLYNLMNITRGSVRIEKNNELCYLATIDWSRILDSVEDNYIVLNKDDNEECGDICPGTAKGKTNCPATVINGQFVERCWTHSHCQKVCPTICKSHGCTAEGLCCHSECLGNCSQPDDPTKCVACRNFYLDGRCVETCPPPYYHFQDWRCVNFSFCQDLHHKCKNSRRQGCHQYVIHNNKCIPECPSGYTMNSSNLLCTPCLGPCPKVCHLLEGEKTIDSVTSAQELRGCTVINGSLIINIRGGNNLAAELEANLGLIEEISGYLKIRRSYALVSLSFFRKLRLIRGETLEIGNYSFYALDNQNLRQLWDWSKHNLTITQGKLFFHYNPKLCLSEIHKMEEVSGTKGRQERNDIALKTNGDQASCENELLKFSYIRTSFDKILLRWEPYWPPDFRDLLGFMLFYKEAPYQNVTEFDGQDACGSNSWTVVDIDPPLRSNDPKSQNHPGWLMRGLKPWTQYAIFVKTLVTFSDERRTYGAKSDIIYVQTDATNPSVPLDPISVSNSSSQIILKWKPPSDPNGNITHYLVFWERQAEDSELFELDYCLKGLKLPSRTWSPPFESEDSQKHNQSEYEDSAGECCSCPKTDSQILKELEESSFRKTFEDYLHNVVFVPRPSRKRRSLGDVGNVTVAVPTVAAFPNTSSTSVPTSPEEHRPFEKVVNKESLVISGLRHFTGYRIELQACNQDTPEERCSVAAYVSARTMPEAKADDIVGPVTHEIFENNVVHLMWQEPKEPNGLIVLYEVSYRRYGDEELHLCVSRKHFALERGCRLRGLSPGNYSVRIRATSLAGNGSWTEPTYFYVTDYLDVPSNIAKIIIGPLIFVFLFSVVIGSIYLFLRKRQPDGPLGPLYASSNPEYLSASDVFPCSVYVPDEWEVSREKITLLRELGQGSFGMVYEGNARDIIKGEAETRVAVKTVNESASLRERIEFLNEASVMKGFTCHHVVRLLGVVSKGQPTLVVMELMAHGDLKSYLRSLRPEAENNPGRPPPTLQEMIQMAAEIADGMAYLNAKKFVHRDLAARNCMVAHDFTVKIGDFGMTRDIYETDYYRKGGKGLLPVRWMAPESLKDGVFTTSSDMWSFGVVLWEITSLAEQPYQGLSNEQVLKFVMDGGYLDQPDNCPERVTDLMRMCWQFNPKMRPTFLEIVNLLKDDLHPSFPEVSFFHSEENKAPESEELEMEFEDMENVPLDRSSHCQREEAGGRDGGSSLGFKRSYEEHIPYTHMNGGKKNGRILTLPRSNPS

Ki (Biotinylated PCSK9) [nM] | LDL uptake EC50 (nM) in HepG2 cells [1] [nM] | hIR-A binding affinity (% rel to HI) [2] | hIR-A binding affinity (% rel to HI) [3] | Substance
2.07 | – | – | – | EGF(A)(301L, 309R, 312E, 321E)-[GAQP]6-Insulin(A14E, B29K(octadecanedioyl-gGlu-OEG), desB30)
1.75 | – | – | – | EGF(A)(301L, 309R, 312E, 321E)-[GAQP]6-Insulin(A14E, B29K(eicosanedioyl-gGlu-2×OEG), desB30
1.92 | – | – | – | EGF(A)(301L, 309R, 312E, 321E)-[GAQP]6-Insulin(A14E, B29K(octadecanedioyl-gGlu-2×OEG), desB30)
2.12 | 123 | 2.99 % rel to HI | 0.14 % rel to HI | EGF(A)(301L, 309R, 312E, 321E)-[GAQP]19-Insulin(A14E, B29K(octadecanedioyl-gGlu-2×OEG), desB30)
– | 126 | 2.89 % rel to HI | 0.14 % rel to HI | EGF(A)(301L, 309R, 312E, 321E)-[GAQP]19-Insulin(A14E, B29K(eicosanedioyl-gGlu-2×OEG), desB30)
1.9 | – | – | – | EGF(A)(301L, 309R, 312E, 321E, 328K(hexadecanedioyl-gGlu-2×OEG), 330K(hexadecanedioyl-gGlu-2×OEG)) (peptide; modification not given; biotinylated (sites not stated))
1.86 | – | 4.15 % rel to HI | 0.29 % rel to HI | EGF(A)(301L, 309R, 312E, 321E)-[GAQP]19-Insulin(B3E, B29K(eicosanedioyl-gGlu-2×OEG), desB30)
– | 152 | – | – | EGF(A)(301L, 309R, 312E, 321E, 328K(hexadecanedioyl-gGlu-2×OEG), 330K(hexadecanedioyl-gGlu-2×OEG)) (peptide; modification not given)
